Measured values from the supplement of paper PMC12636428.

System: Saccharomyces cerevisiae
Test: transcriptional activation domain activity (GFP:mCherry ratio, weighted mean of sorted bins, harmonized to initial dataset scale) (arbitrary fluorescence ratio units); higher = stronger transcriptional activation
Details: beta-estradiol 1 µM; induction time 4 h
In short: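 Sorting into 8 bins by GFP:mCherry ratio followed a 4-hour hold at 30 °C after cultures were diluted 1:5 into SC with 1 uM beta-estradiol. The yeast diploids carried a GFP reporter and had barcoded protein tiles, fused to an estradiol-inducible synthetic transcription factor, integrated at URA3. Barcodes were then sequenced, and tiles with under 50 reads were removed. Activation activity is the read-weighted mean of bin median fluorescence, averaged across barcodes and linearly mapped onto the initial dataset scale.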

Sequence | transcriptional activation domain activity
AWVLSLFLSFFGIGLVLGSGIWDLGFGLVFLFLVFSFFWGWFWVVLCVVYVDR | 33800
SGNPPNVVMPPIVCPYSPIIIISYVVTYFFLHHFGGLIGWLQFLSLLLQSLMV | 51000
GLANYLKPVHDQKLIIFIEILILLWAVLVYSTVQVARGATGFYLPTVLYNIYL | 49300
REEAERKAREEEAERKAARGRGEESEGRARKAGARRARGTPRGGKAGTRRGGE | 43000
FDIITASLENSYQTTLTEKGSQVMEKNMDQLDSVHNLNDDDLQQLLEDLGNID | 111000
RELEKREREREEREREERERELEKREREREQRGRELEKRERRGRRGSESWRRG | 26100
PASNGHAEPETKPEPEAAPEPVEEKAATPAPATPAQPSPAPTPAPAAAAPSPA | 10200
MAFLYLELPLVGMTFGGGRRGWGFMYLFLFLSFSFFFIQLWFGLVWVMTLCEV | 63600
PTCALLSLQPVLPSPFGPPSSLLPVTSLFYLSPPSLLCILALSSFLLILPLLF | 38800
PRHIQTIDEKLINDSNYLAFLKFDDLENEKFHSSASSISSPSYSSPSFSSYRN | 82100
EGRRASRRKARGKSGADTPGTSEDEGVGGTSKSKPRKKRKLERKSKDAGKFKS | 27600
DSKSDATPAWSDLKTKAGKERKRLPLACIVCRRKKIRCSGEKPACKHCLRARI | 41900
MRTGSNFVLFAFFCLVLMFTLTFILVFVCCASVGGILYPFRFLLSFVWILVSL | 28200
AINYASMCKQYERAEYTQRLMIELDPVLRHSWSRRLATWRLTETWTHYLVLNI | 68900
EEKDTKGGPATTSKAVVKGSKSAADKKKLVKGDAKGKVPENGKRDKSEEKDEK | 21800
EKGGGRDGETAAVEGEKEVQNGDAQTEADGNASTDGGTKRRRKGKKAAAEADD | 24100
LFHVDLDKMYLMMITLCITWIHACLNVYQIHLLSLLNQWNVISSCLGLLVIVL | 41900
DADEAEGAPDAAGEGAAKKKKKRKPRKKKKGGAGGGGGGGPKVQTSPPRVPIH | 11400
AAEDGKKGDKAEVGKRGDKAEVKKVKKVDGEEAGGEKVVVEKKAGAEQKAVKA | 17500
MTLLFMWLIVRYILCYVSYYRRYAHRVGTQLPPTYPSFIPKYGTALSYLLAPA | 58700
LALFGMKMVEAIMTMIHMDFRYCDFLGILPLLIFLIPCHYFYTLLKIKALLTY | 60600
KEENKKDDLKEATKKGRKPRAAKEEAKEEAEGVKPKGRKRKATEEASDEIVVA | 23400
HLLKWCNFGLLPHWLFHILILVSKSSLNNLIIAYVYCPLFFGCFLPSTYISCN | 58200
KEKEDYALAIKLYADSIIITLRRLFKELDYIEIKSLIISSMFKVLLYNLLIYK | 66200
MCFFSFFLFLLRIWLLFCLLLSIPLGFRMRSWGVPTAFVTILHFSLVMHLITV | 59900

Sequence | transcriptional activation domain activity
TLPQEDTQSTEDTKVEKKLVIASLLSRMLIPTIIMAPLLALTAKFVPVSILDD | 52400
AAKGKAAAGGGTKKKGTAGAEAETPEMATPAPEGAPNAPAKKRAKKATAAAAA | 36400
MWLLHFSFLRVLPLFLLMLRCLLLAICIVTYINGPTLVFSHPLITIYSLTLLA | 56200
HVERGRDVTKGFVKCHTHMRTTCVGSIRFSHAASFAPSVCLGVGVKSLDRRPL | 37300
FFLLRNGFIFEDMARYRFYTCSQLWLWLIFLAVRSEIGLQRVYVFFVFMLFQV | 49800
ILFCSWLSFRQLFFLFICNTHHWVFEDYFCHFSFFLSLFLMAITWKCFFFFFF | 38900
LLYLGCRWCTLIAIIFHFLGFDGGHRIDCQFMGYFSFTCASALIVLRIVAFWA | 66900
DRPRDRDSSRSRRDVSSSRRDRDGEDKESAGDRRDDRKPARDDRRTREDHRRE | 28100
QTTLRAVVSSKEAGVIIGKGGKNVADLRDETGVKAGVSKVVQGVHDRVLTITG | 51200
GAPHHNQFLDLNLGLEVYKETGRRVQFLVAAKSMQRKFVGLCCRLIHAIPVVR | 67400
KFKTFPLFLPRINFHSIPSFNILLSSFPNSIFLNVLFRISLYYIWAYFLWCAL | 52000
FFSSLFIYSFFVFSFSLSLSLCLLPSFFLSCFLSFFAIYYYLVGFLLLLLLLF | 49100
RPAPAKSKARSSRKAVVEEPEIPQAQEEEEDVKPVIRGRKKRVSIAEPEKPKR | 35300
IEGPTLSDWFRIFERAFSLRELHWVYNYEDSYAMKPDRVIVLLNLWQLVAPNV | 42800
YTLILSLFYSLAPVLFRLSSAAFFNISLLTGSFWGVAIGVKVFHLSIHWMYPI | 42600
IVQLHLKIHGAWLGRIRCDHCPKFHIEKFCWAACGGPQGLRRIIEHYLKVLNW | 39000
MFALLEILCLICILLLTKPRCLCFSIRLEILIFFSFFFFFFCIFLVGYTLSTL | 80600
LLVLLLVLLLVLLLILLLILLILLVYLLLLLLLVLLFFLLLLLLLFTFILHFL | 46200
AVPAEGAKPEETPAAAPAETTEAAKTEESKPEAPAASEPAKTEPAAPAAAPAA | < 6570
DADGNPTGDGEPPKKRRRRQALSCTECKRRKIKCDRNHPCSPCARRGDGQKCQ | 13000
YDGGRLIVAIPFVCKVLEQAGRSTVFKPPNPWLMAVVRVLVELYKFAELKLNL | 53800
LDGSVDTSAPLDTGLFNSWMDIFQAFPFPAEGFTPDSFNDNYPIDPNQTFLTI | 141000
GTGRSSDDVSSGAGSEEVSQTLDEKMAEEQKGRQRLNNIIQQFYIKGALVIVG | 67400
ILVLIVSNLRLMIENFRKYGVLICIRCHDYRRQDVVYGSILYFLVPCHLFVAY | 51300
LRYALDLYRSLRAKVWENSPLILRQLEGIGKMILIISLLRKLIGVIIQLMYCF | 55500

Sequence | transcriptional activation domain activity
LLLFLFLRICFGLHVLATSAWFFYPSFLYGLSLITLPLFYGGVDPSVPWLFDG | 48900
MDAPQNNSRGNNARRNRNRGGNRQSTGGVTKQQSQQQSKPAAKPVNVQTTVVI | 47800
VCVRVDWPWLSFPTALVLLTVVLFVTVLVIARRSQVSEGQPIWKSSSIVAFFH | 41100
FALTFFWSLIGYWVPFFEAIHLFWWIGYRANYVPLMSADVAWRWFFKWDFPFF | 62000
VGSAINTRLTTPKLVDSPKRPGCLSISRKDQHETYLSLLMRLVVASKMCLSAY | 50800
AALALKFRYRIDGSTEDRWISVSRMLNKIAHWYLPQKYTFLHPSGIVSYAVIR | 66900
MHYLGLFRALDYNASSLIGVVNIDYTTVIYLIIEELIILLLTLAKRNVATQYA | 61800
ATKTKAATTKKAAVPKKAAAKPAPKKAVAAAKPKANAGRPRKTVAAAAGPAPA | 42000
EEPVPKKRGRGRPPKNPAAKAKAAAAAAAAKKAERLPKVRVHKAHTPLRENIH | < 6570
RFVTNILVILSDRVNMEQLLKRIRKKAADFYHFTDLWQWCCAQFVKLLRKVYN | 55100
IGLLLLSILVIYIFISFPHHTIESGHCTISFTSPIAIFYLLLLNFFLNTYLSF | 36300
NMGEQQKFTSPQHIVHKAKFLSNAADSEYSILSNIIYQDTLSNKIPIDILYSN | 76900
YFLGIFMYFLYGESVIYYFKHVLLVDRILLPLATHHRFISFMLYLIGFVFFVG | 65800
KRSRKHSSREDVGEEGEDRRSEHRERKKEKEREKDKEKDKDRSRSRHKRSRSD | 53600
LLLLLLYFFLFLFLFLFLCSQVLCLGQVDLVDLEKPFVFQSFFEIFPTLLFLP | 35100
EEDSKVSVDVDRPAKRGRGRPPKPKDPNAPPPKPKSGRGRGRPPKAKPVEVAG | 39800
VHNNSNNSNNSNISASDYTVANNSTSNNNNNNNNNNNNNNNIHPNQFTAAANM | 39200
EKRGAAKRADRSRSRSRGRSRGAKDVARRRRRNSSADSHEAREHRRQGKRGRS | 44700
MASPASSTEQQRAAKRKSHRKSRNGCFQCKQRHSKVSQSSTLLAAAASNLSRT | 27100
GVSMGSGYFFMVWLTMWLYSELNFWVIDGVCSLVEMQWMPFFILSWIICQVAG | 50800
MAKKGSASTDKKAADKSDKKGKAKATTDDGEEKQAKGKGSLKAATAVNVRHIL | 36900
SASSPAATSPSACPTSSPRLRSPSSPSPSSQPPASPCTRSCPPPRPAARTARP | 47500
FFCSLFVSPVTLFFIFYSYCKRSFAISLLLMITIYWSFLLGLTASILVYRIWL | 57500
PILYFLSLSLSLPPSLSLFLFLYIINQISRFWLVLFQLFFLFLFLLFPSILTS | 62800
